# In patent publication US20120093805A1:
# Columns and labels:
# [1] = molecular target: human sugar chain-deficient CD27 expressed on Lec8 cells (human) (UniProt P26842); test: flow cytometry (FCM) on CD27/Lec8-4 cells [A) (b]
# [2] = molecular target: human CD27 with normal O-linked sugar chains expressed on CHO/DG44 cells (human) (UniProt P26842); test: flow cytometry (FCM) on CD27/DG44-4 cells [B) (b]
# [3] = molecular target: cynomolgus CD27 (C-terminal His tag) with normal O-linked sugar chains expressed on CHO/DG44 cells (cynomolgus); test: flow cytometry (FCM) on cynomolgus CD27/DG44 cells; number printed beside the broken bar
# Sequence of human CD27 with normal O-linked sugar chains expressed on CHO/DG44 cells (human) (P26842 20-260 H233R limits assumed): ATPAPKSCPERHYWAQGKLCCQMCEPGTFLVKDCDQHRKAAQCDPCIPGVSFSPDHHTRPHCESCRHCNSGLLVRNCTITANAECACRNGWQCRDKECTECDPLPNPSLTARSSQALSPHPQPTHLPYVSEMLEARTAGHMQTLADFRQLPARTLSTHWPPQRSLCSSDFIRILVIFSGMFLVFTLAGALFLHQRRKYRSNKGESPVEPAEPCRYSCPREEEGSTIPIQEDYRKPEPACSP
# Sequence of human sugar chain-deficient CD27 expressed on Lec8 cells (human) (P26842 20-260 H233R limits assumed): as above
substance,measurement,setting,value
Anti-CD27 Antibody (O323),EC50 (read off the curve),[1],0.1 µg/mL
same,EC50 (read off the curve),[2],0.1 µg/mL
same,Mean Fluorescence Intensity,[3],133
